From PMC7979852, “Alpha-1 antitrypsin inhibits TMPRSS2 protease activity and SARS-CoV-2 infection” (Nature Communications, 2021)

Molecular target: T1, α1-antitrypsin (human, UniProt P01009 25-418)
T1 construct: alpha-1-antitrypsin (SERPINA1), human, plasma-derived, 52 kDa; The activity assays used Prolastin; also called α1AT; alpha-1 antitrypsin; source: bought: Merck (A9024) or GRIFOLS (Prolastin), purified from human plasma
Assay: SPR; TMPRSS2 amine-coupled (NHS/EDC) on an MUA-functionalised gold chip, Reichert SR7000; α1AT flowed at 0-20 µM in 10 mM HEPES, 150 mM NaCl, 0.05 % Tween-20, pH 7.5, 10 µl/min; equilibrium analysis
Details: both partners purified

T1 sequence (P01009 25-418): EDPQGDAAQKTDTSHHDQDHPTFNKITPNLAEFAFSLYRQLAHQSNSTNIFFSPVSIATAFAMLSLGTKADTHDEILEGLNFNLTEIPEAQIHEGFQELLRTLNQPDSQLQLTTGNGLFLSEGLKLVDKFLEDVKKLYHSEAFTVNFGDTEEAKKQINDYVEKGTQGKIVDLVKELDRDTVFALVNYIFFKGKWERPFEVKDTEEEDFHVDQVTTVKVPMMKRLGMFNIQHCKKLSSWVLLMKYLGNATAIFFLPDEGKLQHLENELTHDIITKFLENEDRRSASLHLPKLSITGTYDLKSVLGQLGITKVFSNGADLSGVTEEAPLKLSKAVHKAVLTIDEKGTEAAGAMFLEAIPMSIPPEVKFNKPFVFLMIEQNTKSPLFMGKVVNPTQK

B1: recombinant TMPRSS2 (enzyme)
chain: not shown
notes: TMPRSS2, human, recombinant protein from Creative BioMart; No catalogue number or construct limits are printed; The cell-associated activity assay used TMPRSS2 expressed from Addgene 53887 in HEK293T cells; also called recombinant human TMPRSS2; transmembrane serine protease 2; source: bought: Creative BioMart
Kd: 941 ± 297 nM
